We go through 2 molecules from patent publication US20230272020A1 (MEDICAL RESEARCH AND DEVELOPMENT FUND FOR HEALTH SERVICES …, published 2023).

The target in one experiment is T1, neuropilin-1 receptor (human, UniProt O14786 22-923).
T1 construct: whole, on cells; Endogenous receptor on human cells; also called Nrp1; nrp1
Description: Sema3A-AP on parental U87MG cells expressing Nrp1, alkaline phosphatase colorimetric assay.

Experiment [1] has as its target T2, WT-Sema3A with C-terminal His tag (human, UniProt Q14563 21-771, limits assumed).
T2 construct: also called wild type Sema3A; WT-Sema3A peptide; not shown: C-terminal His tag
T2 sequence: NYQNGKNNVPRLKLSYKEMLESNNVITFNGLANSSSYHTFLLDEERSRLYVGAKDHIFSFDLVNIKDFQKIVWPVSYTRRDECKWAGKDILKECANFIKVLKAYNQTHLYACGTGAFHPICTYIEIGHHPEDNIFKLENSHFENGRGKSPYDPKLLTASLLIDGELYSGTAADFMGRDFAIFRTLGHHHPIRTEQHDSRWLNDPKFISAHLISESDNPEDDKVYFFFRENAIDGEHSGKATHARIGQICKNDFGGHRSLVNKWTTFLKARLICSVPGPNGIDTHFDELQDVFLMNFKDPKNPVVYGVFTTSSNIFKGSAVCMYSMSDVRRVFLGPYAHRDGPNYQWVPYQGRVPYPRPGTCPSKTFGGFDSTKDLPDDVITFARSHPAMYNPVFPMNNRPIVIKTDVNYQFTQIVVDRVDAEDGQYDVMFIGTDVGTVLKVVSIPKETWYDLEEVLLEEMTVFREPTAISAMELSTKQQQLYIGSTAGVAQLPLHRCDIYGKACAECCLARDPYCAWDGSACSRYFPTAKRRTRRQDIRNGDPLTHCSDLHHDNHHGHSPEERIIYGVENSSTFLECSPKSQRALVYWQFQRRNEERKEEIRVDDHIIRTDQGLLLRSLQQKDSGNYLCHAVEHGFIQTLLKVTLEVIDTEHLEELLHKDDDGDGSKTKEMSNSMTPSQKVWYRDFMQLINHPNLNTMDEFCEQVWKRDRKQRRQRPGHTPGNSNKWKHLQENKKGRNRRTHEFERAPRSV
Description: inferred by the filing from the phosphorylation assay in BLCL versus BLCL+CD72 cells. The procedure: Cells were serum starved for 16 h. At the day of the experiment, cells were activated with 5 μg/ml anti IgM for 5 min at 37° C. and then 10 μg/ml of Sema3A or elution buffer as a control were added for extra 10 min at 37° C. The experiment was terminated by a wash with ice cold PBS and lysed with phosphorylation lysis buffer (50 mM Tris-HCl pH-7.5, 150 mM NaCl, 2 mM EDTA, 2 mM EGTA, 5 mM NaF, 2 mM Na₃VO₄, 10 mM Na₄P₂O₇, 1% Triton X-100). 80 μg of proteins were subjected to SDS-PAGE and immunoblotted with an antibody directed against phosphorylated target protein, the blot was then stripped and re-probed with an antibody directed against total protein. Western blots were probed with the following antibodies: anti STAT4 (C-4) (Santa Cruz Biotechnology), anti phospho-STAT4 (Tyr693) (Santa Cruz Biotechnology), p38 MAPK Antibody (Cell Signaling Technology, Inc), Phospho-p38 MAPK (Thr180/Tyr182) Antibody (Cell Signaling Technology, Inc). Quantification of band intensity was performed using ImageQuant LAS 4000 program.
To test whether Sema3A signal transduction is mediated by CD72, Furthermore, CD72 was expressed in primary B-lymphoblastoid cells that lack neuropilin-1. […] Next, BLCL cells and BLCL cells expressing CD72 (BLCL+CD72) were stimulated with WT-Sema3A peptide. The phosphorylation state of Stat-4 and P38 was than determined. […]

T1 sequence (O14786 22-923): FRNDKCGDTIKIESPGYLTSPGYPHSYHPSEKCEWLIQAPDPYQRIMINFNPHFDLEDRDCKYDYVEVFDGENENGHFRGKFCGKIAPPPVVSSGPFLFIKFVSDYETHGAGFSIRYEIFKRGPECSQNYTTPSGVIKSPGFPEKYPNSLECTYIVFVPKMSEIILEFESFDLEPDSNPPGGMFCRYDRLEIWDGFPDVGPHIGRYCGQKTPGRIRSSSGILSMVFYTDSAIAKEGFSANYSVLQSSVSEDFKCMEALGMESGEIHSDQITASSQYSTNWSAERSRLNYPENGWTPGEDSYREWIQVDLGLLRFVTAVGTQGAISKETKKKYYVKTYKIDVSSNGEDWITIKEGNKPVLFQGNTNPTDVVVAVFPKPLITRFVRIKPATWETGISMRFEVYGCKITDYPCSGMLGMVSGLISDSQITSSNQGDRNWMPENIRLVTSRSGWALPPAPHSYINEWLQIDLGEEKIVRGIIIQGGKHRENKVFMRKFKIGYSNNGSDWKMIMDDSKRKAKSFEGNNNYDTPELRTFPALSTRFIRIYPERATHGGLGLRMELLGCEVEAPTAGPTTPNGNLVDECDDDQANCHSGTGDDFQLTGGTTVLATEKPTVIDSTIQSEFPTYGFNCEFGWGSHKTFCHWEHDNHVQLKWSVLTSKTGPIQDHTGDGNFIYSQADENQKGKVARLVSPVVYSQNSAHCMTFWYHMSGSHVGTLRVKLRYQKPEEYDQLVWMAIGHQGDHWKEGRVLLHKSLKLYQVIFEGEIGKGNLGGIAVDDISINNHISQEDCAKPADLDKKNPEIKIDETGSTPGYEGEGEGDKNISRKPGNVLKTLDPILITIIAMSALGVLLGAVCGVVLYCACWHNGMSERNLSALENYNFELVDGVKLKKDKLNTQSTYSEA

B1: Sema3A-AP (WT-Sema3A in frame with alkaline phosphatase) (ligand)
chain: NYQNGKNNVPRLKLSYKEMLESNNVITFNGLANSSSYHTFLLDEERSRLYVGAKDHIFSFDLVNIKDFQKIVWPVSYTRRDECKWAGKDILKECANFIKVLKAYNQTHLYACGTGAFHPICTYIEIGHHPEDNIFKLENSHFENGRGKSPYDPKLLTASLLIDGELYSGTAADFMGRDFAIFRTLGHHHPIRTEQHDSRWLNDPKFISAHLISESDNPEDDKVYFFFRENAIDGEHSGKATHARIGQICKNDFGGHRSLVNKWTTFLKARLICSVPGPNGIDTHFDELQDVFLMNFKDPKNPVVYGVFTTSSNIFKGSAVCMYSMSDVRRVFLGPYAHRDGPNYQWVPYQGRVPYPRPGTCPSKTFGGFDSTKDLPDDVITFARSHPAMYNPVFPMNNRPIVIKTDVNYQFTQIVVDRVDAEDGQYDVMFIGTDVGTVLKVVSIPKETWYDLEEVLLEEMTVFREPTAISAMELSTKQQQLYIGSTAGVAQLPLHRCDIYGKACAECCLARDPYCAWDGSACSRYFPTAKRRTRRQDIRNGDPLTHCSDLHHDNHHGHSPEERIIYGVENSSTFLECSPKSQRALVYWQFQRRNEERKEEIRVDDHIIRTDQGLLLRSLQQKDSGNYLCHAVEHGFIQTLLKVTLEVIDTEHLEELLHKDDDGDGSKTKEMSNSMTPSQKVWYRDFMQLINHPNLNTMDEFCEQVWKRDRKQRRQRPGHTPGNSNKWKHLQENKKGRNRRTHEFERAPRSV
notes: Secreted by HEK293-Sema3A-AP cells and used as 50-fold concentrated conditioned medium; also called Sema3A-Alkaline Phosphatase; AP-Sema3A; not shown: alkaline phosphatase fused in frame
As for B1, in the experiment with neuropilin-1 receptor, the binding result is reported as “binds”.

B2: CD72 (full-length, untagged, on cells: BLCL-CD72 cells; CD4+ T cells) (receptor, human, UniProt P21854 1-359, looked up)
chain: MAEAITYADLRFVKAPLKKSISSRLGQDPGADDDGEITYENVQVPAVLGVPSSLASSVLGDKAAVKSEQPTASWRAVTSPAVGRILPCRTTCLRYLLLGLLLTCLLLGVTAICLGVRYLQVSQQLQQTNRVLEVTNSSLRQQLRLKITQLGQSAEDLQGSRRELAQSQEALQVEQRAHQAAEGQLQACQADRQKTKETLQSEEQQRRALEQKLSNMENRLKPFFTCGSADTCCPSGWIMHQKSCFYISLTSKNWQESQKQCETLSSKLATFSEIYPQSHSYYFLNSLLPNGGSGNSYWTGLSSNKDWKLTDDTQRTRTYAQSSKCNKVHKTWSWWTLESESCRSSLPYICEMTAFRFPD
notes: whole, on cells; also called CD72 receptor
For B2, the binding result in experiment [1] is “binds”.
